Reference: US20040077547A1, “FVIIa antagonists” (Genentech, Inc., priority 1999, published 2004)
Where no end group is shown, it is not given here.

How the values were obtained:
recombinant human FVIIa [1] = target: T1, recombinant human FVIIa (Homo sapiens, UniProt P08709); test: FVIIa Binding ELISA (competition with TF183b); details: for affinity for FVIIa: compared with SEQ ID NO: 4
T1 construct: proteolysis of FVII to FVIIa at a site (Arg152-Ile153 for human FVII (hFVII))
T1 sequence (P08709 61-212 limits assumed): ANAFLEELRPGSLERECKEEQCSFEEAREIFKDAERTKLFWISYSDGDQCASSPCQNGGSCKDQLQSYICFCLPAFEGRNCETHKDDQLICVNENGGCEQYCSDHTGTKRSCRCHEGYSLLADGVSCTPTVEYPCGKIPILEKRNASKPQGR
T1 sequence (P08709 213-466 limits assumed): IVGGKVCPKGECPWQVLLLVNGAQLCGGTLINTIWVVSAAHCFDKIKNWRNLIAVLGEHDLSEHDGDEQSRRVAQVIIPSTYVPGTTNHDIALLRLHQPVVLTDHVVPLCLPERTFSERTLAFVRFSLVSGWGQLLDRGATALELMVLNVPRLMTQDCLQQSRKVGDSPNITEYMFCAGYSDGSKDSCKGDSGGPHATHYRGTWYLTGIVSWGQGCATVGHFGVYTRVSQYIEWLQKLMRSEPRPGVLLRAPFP
Experimental: FVIIa Binding ELISA—The ability of peptides to compete with biotinylated TF183 (TF183b) (or other peptides described herein that could be biotinylated as described) for binding to FVIIa was monitored using a FVIIa Binding ELISA or a TF-FVIIa Binding ELISA. Microtiter plates were coated overnight with 2 μg/ml recombinant human FVIIa or 2 μg/ml TF1-243 (Paborsky, L. R., et al., J. Biol. Chem. 266: 21911 (1991)) in 50 mM ammonium bicarbonate pH 9 at 4° C.; all other steps were performed at room temperature. Plates were then blocked with 1% BSA in Assay Buffer (50 mM HEPES, pH 7.2, 5 mM CaCl2, 150 mM NaCl). For the TF-FVIIa ELISA, recombinant human FVIIa (2 μg/ml) in 1% BSA in Assay Buffer was added for 30 min to the wells previously coated and blocked with TF to form the TF-FVIIa complex. Dilutions of peptide in Assay Buffer plus 0.05% Tween 20 were added to the microtiter plate along with 5 nM TF183b for 1 h. The microtiter plate was washed 3 times with Assay Buffer plus 0.05% Tween 20 and the biotinylated-peptide bound was detected with a Streptavidin/HRP conjugate (Streptavidin-POD, Roche Molecular Biochemicals). The amount of HRP bound was measured using ABTS/H2O2 substrate (Kirkegaard and Perry Laboratories) and monitoring the absorbance at 405 nm. The absorbance at 405 nm was plotted versus the concentration of peptide originally added to the well. Sigmoidal curves were fit to a four-parameter equation by nonlinear regression analysis (Marquardt, J. Soc. Indust. Appl. Math. 11:431-441 (1963); the concentration of each peptide required to give a half-maximal signal in the assay was calculated from the curves and is referred to as the IC50 value.

TF-FVIIa = target: T2, TF-FVIIa (Homo sapiens, UniProt P08709); test: FX Activation Assay; type: biochemical; details: compared with SEQ ID NO: 4
T2 construct: proteolysis of FVII to FVIIa at a site (Arg152-Ile153 for human FVII (hFVII))
T2 sequence (P13726 33-275 partner limits assumed, one chain of several): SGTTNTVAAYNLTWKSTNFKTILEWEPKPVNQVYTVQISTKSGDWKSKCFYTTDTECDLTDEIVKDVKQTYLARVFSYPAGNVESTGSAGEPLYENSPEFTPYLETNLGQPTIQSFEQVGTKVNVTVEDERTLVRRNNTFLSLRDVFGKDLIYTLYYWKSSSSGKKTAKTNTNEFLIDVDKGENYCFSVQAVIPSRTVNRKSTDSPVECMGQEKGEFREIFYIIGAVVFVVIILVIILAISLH
Experimental: FX Activation Assay—Activation of FX by TF-FVIIa was monitored at room temperature as a function of peptide concentration. Each assay sample contained 100 μl of 460 pM relipidated TF1-243 (Kelley, R. F., et al. Blood 89:3219-3227 (1997)) and 30 pM FVIIa in HBS/Ca buffer (20 mM HEPES, pH 7.4, 5 mM CaCl2, 150 mM NaCl, 0.1% PEG 8000); after 20 min, 25 μl of peptide diluted in HBS/Ca Buffer was added. Following a 30 min incubation the reaction was initiated by the addition of 25 μl of 1 μM FX in HBS/Ca (Note: this yields a final concentration of 306 pM TFPC, 20 pM FVIIa, and 166 nM FX). For kinetic analysis, the final concentration of FX was varied from between 20 and 500 nM. Aliquots of 25 μl were removed at 1, 3, 5, 7 and 9 min and quenched in 25 μl of 50 mM EDTA. The FXa generated in each aliquot could be measured by the addition of 100 μl of 250 μM Spectrozyme fXa (American Diagnostica), 50 mM Tris, pH 8, 50 mM NaCl, 0.0025% Triton X-100. The rate of FXa generated at each peptide concentration was proportional to the initial slope of the absorbance at 405 nm vs. time. Sigmoidal curves were fit to a four-parameter equation by nonlinear regression analysis (Marquardt, J. Soc. Indust. Appl. Math. 11:431-441 (1963)); the concentration of each peptide required to give a half-maximal signal in the assay was calculated from the curves and is referred to as the IC50 value.

recombinant human FVIIa [2] = target: T1, recombinant human FVIIa; test: Peptide-phage binding to immobilized FVIIa; details: polyvalent phage display
Experimental: (§1) Selection Conditions—TF1-243 (Paborsky, L. R., et al., J. Biol. Chem. 266: 21911 (1991)) or recombinant human FVIIa (2 μg/ml each) were immobilized directly to Maxisorp plates (Nunc) in 50 mM ammonium bicarbonate, pH 9.3 by incubating overnight at 4° C. Wells were blocked using Sorting Buffer (50 mM HEPES, pH 7.2, 5 mM CaCl2, 5 mM MgCl2, 150 mM NaCl, 1% BSA) for 1 h at 25° C. Recombinant human FVIIa (2 μg/ml) in Sorting Buffer was added for 30 min to wells previously coated and blocked with TF to form the TF-FVIIa complex. Phage from the libraries described above were pooled into 3 groups. Pool A contained XiCXjCXk where j=5-7; Pool B contained X4CX2GPX4CX4, X20 and XiCXjCXk where j=4; Pool E contained XiCXjCXk where j=8-10. Phage from each pool were incubated with the immobilized targets in Sorting Buffer for 3 h at 25° C.; generally about 5×10^10 phage were added at the beginning of each round. Unbound phage were removed by repetitive washing with Wash Buffer (50 mM HEPES, pH 7.2, 150 mM NaCl, 0.005% Tween 20); remaining phage were eluted with 500 mM KCl, 10 mM HCl, pH 2. The eluted phage were then propagated in XL1-Blue cells with VCSM13 helper phage (Stratagene) overnight at 37° C. Enrichment could be monitored by titering the number of phage which bound to a target coated well compare to a well coated with BSA. […]

TF-FVIIa complex = target: T3, TF-FVIIa complex (Homo sapiens, UniProt P08709); test: Peptide-phage binding to immobilized TF-FVIIa
T3 construct: proteolysis of FVII to FVIIa at a site (Arg152-Ile153 for human FVII (hFVII))
T3 sequence (P13726 33-275 partner limits assumed, one chain of several): as above
Experimental: as §1

TF = target: T4, TF (Homo sapiens, UniProt P13726); test: Peptide-phage binding to wells coated with TF; details: polyvalent phage display; also BSA-coated wells
T4 construct: TF1-243 for membrane tissue factor composed of the extracellular domain and transmembrane amino acid residues 1-243
T4 sequence (P13726 33-275): as the sequence (P13726 33-275 partner limits assumed, one chain of several) above
Experimental: as §1

BSA = target: T5, BSA (bovine, UniProt P02769 25-607); test: phage binding to coated wells
T5 construct: Control coat
T5 sequence (P02769 25-607 limits assumed): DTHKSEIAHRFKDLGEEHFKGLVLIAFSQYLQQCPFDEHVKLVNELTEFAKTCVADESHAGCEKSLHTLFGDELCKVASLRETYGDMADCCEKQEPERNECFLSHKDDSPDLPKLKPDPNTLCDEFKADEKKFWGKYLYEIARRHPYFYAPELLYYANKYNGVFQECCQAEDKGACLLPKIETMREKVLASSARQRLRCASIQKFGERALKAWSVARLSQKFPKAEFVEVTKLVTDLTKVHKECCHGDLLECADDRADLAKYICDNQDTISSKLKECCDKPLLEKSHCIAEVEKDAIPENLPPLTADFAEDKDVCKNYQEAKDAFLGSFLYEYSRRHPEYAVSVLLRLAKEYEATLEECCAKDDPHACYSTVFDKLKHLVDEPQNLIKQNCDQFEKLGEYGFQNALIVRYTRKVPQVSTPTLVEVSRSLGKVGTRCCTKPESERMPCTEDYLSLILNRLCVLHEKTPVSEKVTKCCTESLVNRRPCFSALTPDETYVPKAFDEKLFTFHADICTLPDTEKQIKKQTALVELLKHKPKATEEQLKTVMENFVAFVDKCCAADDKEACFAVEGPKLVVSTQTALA

EEWEVLCWTWETCER [TF183]
IC50 for FVIIa (recombinant human FVIIa [1]; compared with TF65 (SEQ ID NO: 4), values in FIG. 4, not given): decreased IC50

EEWEVLCWTWETCERGEG [TF100]
ability to inhibit FX activation (TF-FVIIa): increased ability to inhibit FX activation | affinity for FVIIa (recombinant human FVIIa [1]): improved affinity

SAEWEVLCWTWEGCGSVGLV [TF53]
binding of phage bearing the sequence to immobilized FVIIa (recombinant human FVIIa [2]): bound specifically | binding to covalently and noncovalently active site blocked TF-FVIIa (TF-FVIIa complex; active site alkylated with biotinylated EGR chloromethylketone or blocked by TF7I-C): bound | binding of phage bearing the sequence to immobilized TF-FVIIa (TF-FVIIa complex; polyvalent phage display): bound specifically | binding of phage bearing the sequence to wells coated with TF (TF): did not bind

TF100Z: TF100 peptide fused to the Z consensus domain of protein A (EEWEVLCWTWETCERGEGGGGSGG)
ability to inhibit FX activation (TF-FVIIa): increased ability to inhibit FX activation | affinity for FVIIa (recombinant human FVIIa [1]): improved affinity

B1: TF53 peptide-phage (polyvalent phage clone from Pool A bearing SAEWEVLCWTWEGCGSVGLV) (peptide)
peptide: SAEWEVLCWTWEGCGSVGLV
modifications: cysteine pairing not given here; also: displayed on phage as a coat-protein fusion
binding result (BSA): no binding
